Laboratory results taken from publication PMC8716947.

Test system: T1, KguR (MBP-KguR-His6) (Escherichia coli (uropathogenic, CFT073)), ORF:aaa0ecb8
T1 sequence: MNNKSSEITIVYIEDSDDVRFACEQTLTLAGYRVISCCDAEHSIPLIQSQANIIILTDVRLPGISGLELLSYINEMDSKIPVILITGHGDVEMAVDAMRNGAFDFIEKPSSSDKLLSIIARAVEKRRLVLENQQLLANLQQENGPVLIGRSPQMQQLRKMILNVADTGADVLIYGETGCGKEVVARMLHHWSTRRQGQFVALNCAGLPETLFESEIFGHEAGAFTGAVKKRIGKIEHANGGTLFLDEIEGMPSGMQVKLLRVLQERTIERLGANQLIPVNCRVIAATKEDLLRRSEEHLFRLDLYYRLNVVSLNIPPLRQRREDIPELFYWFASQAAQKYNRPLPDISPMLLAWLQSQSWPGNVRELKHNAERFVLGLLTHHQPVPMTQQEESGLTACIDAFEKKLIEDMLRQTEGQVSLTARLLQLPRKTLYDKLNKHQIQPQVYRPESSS
Assay: EMSA

Question: Which binding does the source give for “CATTCATCATCCATTGAATGCATTTATATTTATCATCAGTATATTCCCTGAACAATGTTTGCGAGAACCAAAAGAGTGCCATTGTGTGAATGTGTAAGCAGAATAACCGTGGCAATGTGTGGTTTATCGCACAGGTATTCCAAATGTGATCATGCTCTTTTTATGTGACAAATCCGCAGATAATCCTTCCTTTCCCCCGCGGTTGGCGTTATGGTCAGATGGTT (double strand) [PkguS]” here?
Answer: Its binding is “binds”.
